Measured values from patent US20250076311A1 (Chugai, published 2025).

T1: cynomolgus monkey FcγRIIa3 extracellular domain with C-terminal His-tag (cynomolgus monkey)
T1 construct: also called cyno FcgRIIa3; cynoFcγRIIa3
T1 chain: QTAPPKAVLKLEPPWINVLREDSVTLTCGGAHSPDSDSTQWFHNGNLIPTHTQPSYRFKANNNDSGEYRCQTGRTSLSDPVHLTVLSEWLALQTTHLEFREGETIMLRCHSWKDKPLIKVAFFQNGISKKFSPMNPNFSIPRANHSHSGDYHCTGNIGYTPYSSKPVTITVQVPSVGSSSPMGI

T2: human FcγRIIaR extracellular domain with C-terminal His-tag (human, UniProt P12318 34-217)
T2 construct: also called human FcgRIIaR; FcγRIIa (type R)
T2 chain: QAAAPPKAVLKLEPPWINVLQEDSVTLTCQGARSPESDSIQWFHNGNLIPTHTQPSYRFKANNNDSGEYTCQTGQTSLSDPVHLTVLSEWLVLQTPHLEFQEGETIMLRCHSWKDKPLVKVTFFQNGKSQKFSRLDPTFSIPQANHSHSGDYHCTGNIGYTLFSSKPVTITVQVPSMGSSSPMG

T3: cynomolgus monkey FcγRIIb extracellular domain, His-tagged (cynomolgus monkey)
T3 construct: also called cyno FcγRIIb; cynoFcgRIIb
T3 chain: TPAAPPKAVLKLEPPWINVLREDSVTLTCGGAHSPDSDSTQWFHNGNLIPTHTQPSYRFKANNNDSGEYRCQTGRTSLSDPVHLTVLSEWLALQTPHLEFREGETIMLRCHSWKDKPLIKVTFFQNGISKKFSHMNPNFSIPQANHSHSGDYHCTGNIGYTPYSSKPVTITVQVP

T4: cynomolgus monkey FcγRIIIaS extracellular domain, His-tagged (cynomolgus monkey, UniProt Q8SPW2 21-206 at identity 1.00))
T4 construct: also called cyno FcγRIIIaS; cynoFcgRIIIaS
T4 chain: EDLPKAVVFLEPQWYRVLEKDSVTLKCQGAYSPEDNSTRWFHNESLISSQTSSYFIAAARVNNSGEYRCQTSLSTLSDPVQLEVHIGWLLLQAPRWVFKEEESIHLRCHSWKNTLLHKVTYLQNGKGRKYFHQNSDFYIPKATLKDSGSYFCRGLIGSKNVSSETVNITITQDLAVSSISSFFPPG


Key:
[1] = target: T1, cynomolgus monkey FcγRIIa3 …; assay: SPR (Biacore), KD of SG1 / KD of variant
Description: (§1) The kinetic analysis of interactions between these antibodies and FcγR was carried out using BIACORE® T200 or BIACORE® 4000 (GE Healthcare). HBS-EP+ (GE Healthcare) was used as the running buffer, and the measurement temperature was set to 25° C. […] After the measurement, the antibody captured on the chip was washed off by allowing reaction with 10 mM glycine-HCl, pH1.5 and 25 mM NaOH so that the chip was regenerated and used repeatedly. The sensorgrams obtained as measurement results were analyzed by the 1:1 Langmuir binding model using the BIACORE® Evaluation Software to calculate the binding rate constant ka (L/mol/s) and dissociation rate constant kd (1/s), and the dissociation constant KD (mol/L) was calculated from these values. […] Regarding such interactions, KD values were calculated using the following 1:1 binding model described in BIACORE® T100 Software Handbook BR1006-48 Edition AE.

[2] = target: T2, human FcγRIIaR extracellular domain …; assay: SPR (Biacore), antibody captured, FcgR analyte
Description: as §1

[3] = target: T5, human FcγRIIIaV extracellular domain with C-terminal His-tag (human, UniProt P08637 17-208); assay: SPR (Biacore), antibody captured, FcgR analyte
T5 construct: also called human FcgRIIIaV
Description: as §1

[4] = target: T3, cynomolgus monkey FcγRIIb extracellular …; assay: SPR (BIACORE), antibody captured, FcγR analyte, 25 C; KD of SG1 divided by KD of variant
Description: as §1

[5] = target: T4, cynomolgus monkey FcγRIIIaS …; assay: as above
Description: as §1

T5 sequence (P08637 17-208 F176V): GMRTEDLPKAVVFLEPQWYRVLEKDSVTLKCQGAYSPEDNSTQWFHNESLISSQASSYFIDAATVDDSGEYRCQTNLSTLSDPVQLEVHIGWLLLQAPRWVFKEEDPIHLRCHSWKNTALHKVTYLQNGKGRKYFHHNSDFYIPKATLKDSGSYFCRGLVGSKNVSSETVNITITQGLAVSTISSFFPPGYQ

KD fold (SG1 = 1) [1] [fold] | Kd [2] [nM] | Kd [3] [nM] | KD fold (SG1 = 1) [4] [fold] | KD fold (SG1 = 1) [5] [fold] | Binder
0.6 | 21 | 1300 | – | – | M103205H795-MY448/M103202L889-SK1 (antibody, human IgG1, kappa, Substitutions in EU numbering on SG1) heavy: QVTLKESGPVLVKPTETLTLTCTVSGIDLSHDDISWVRQAPGKGLEWVGIISYAGSTYYASWAKGRLTISKDTSKNQVVLTMTNMDPVDTATYYCARGVPAYSHGGDLWGQGTLVTVSSASTKGPSVFPLAPSSKSTSGGTAALGCLVKDYFPEPVTVSWNSGALTSGVHTFPAVLQSSGLYSLSSVVTVPSSSLGTQTYICNVNHKPSNTKVDKKVEPKSCDKTHTCPPCPAKELLTGPSVFLFPPKPKDTLMISRTPEVTCVVVDVSDEDPEVKFNWYVDGVEVHNAKTKPREEQYNSTYRVVSVLTVLHQDWLNGKEYKCKVSNKALPKPIEKTISKAKGQPREPQVYTLPPSREEMTKNQVSLTCLVKGFYPSDIAVEWESNGQPENNYKTTPPVLDSDGSFFLYSKLTVDKSRWQQGNVFSCSVMHEALHNHYTQKSLSLSP light: DIVMTQSPATLSLSPGERATLSCTSSQSVYHANWLSWFQQKPGQPPKLLIYWASTLAYGVPSRFSGSGSGTDFTLTISSLQPEDAATYYCAGGYGGGRYAFGQGTKVEIKRTVAAPSVFIFPPSDEQLKSGTASVVCLLNNFYPREAKVQWKVDNALQSGNSQESVTEQDSKDSTYSLSSTLTLSKADYEKHKVYACEVTHQGLSSPVTKSFNRGEC
– | – | 5400 | – | – | M103205H795-MY265/M103202L889-SK1 (antibody, Substitutions in EU numbering on SG1; the cell prints I236T, the text gives Thr at 236 of MY201 (G236T)) heavy: QVTLKESGPVLVKPTETLTLTCTVSGIDLSHDDISWVRQAPGKGLEWVGIISYAGSTYYASWAKGRLTISKDTSKNQVVLTMTNMDPVDTATYYCARGVPAYSHGGDLWGQGTLVTVSSASTKGPSVFPLAPSSKSTSGGTAALGCLVKDYFPEPVTVSWNSGALTSGVHTFPAVLQSSGLYSLSSVVTVPSSSLGTQTYICNVNHKPSNTKVDKKVEPKSCDKTHTCPPCPAPELLTGPSVFLFPPKPKDTLMISRTPEVTCVVVDVSDEDPEVKFNWYVDGVEVHNAKTKPREEQYNSTYRVVSVLTVLHQDWLNGKEYKCKVSNKALPKPIEKTISKAKGQPREPQVYTLPPSREEMTKNQVSLTCLVKGFYPSDIAVEWESNGQPENNYKTTPPVLDSDGSFFLYSKLTVDKSRWQQGNVFSCSVMHEALHNHYTQKSLSLSP light: DIVMTQSPATLSLSPGERATLSCTSSQSVYHANWLSWFQQKPGQPPKLLIYWASTLAYGVPSRFSGSGSGTDFTLTISSLQPEDAATYYCAGGYGGGRYAFGQGTKVEIKRTVAAPSVFIFPPSDEQLKSGTASVVCLLNNFYPREAKVQWKVDNALQSGNSQESVTEQDSKDSTYSLSSTLTLSKADYEKHKVYACEVTHQGLSSPVTKSFNRGEC
– | – | – | 2.5 | 0.2 | M103205H795-MY446/M103202L889-SK1 (antibody, human IgG1, kappa, name in EU numbering) heavy: QVTLKESGPVLVKPTETLTLTCTVSGIDLSHDDISWVRQAPGKGLEWVGIISYAGSTYYASWAKGRLTISKDTSKNQVVLTMTNMDPVDTATYYCARGVPAYSHGGDLWGQGTLVTVSSASTKGPSVFPLAPSSKSTSGGTAALGCLVKDYFPEPVTVSWNSGALTSGVHTFPAVLQSSGLYSLSSVVTVPSSSLGTQTYICNVNHKPSNTKVDKKVEPKSCDKTHTCPPCPAHELLTGPSVFLFPPKPKDTLMISRTPEVTCVVVDVSDEDPEVKFNWYVDGVEVHNAKTKPREEQYNSTYRVVSVLTVLHQDWLNGKEYKCKVSNKALPKPIEKTISKAKGQPREPQVYTLPPSREEMTKNQVSLTCLVKGFYPSDIAVEWESNGQPENNYKTTPPVLDSDGSFFLYSKLTVDKSRWQQGNVFSCSVMHEALHNHYTQKSLSLSP light: DIVMTQSPATLSLSPGERATLSCTSSQSVYHANWLSWFQQKPGQPPKLLIYWASTLAYGVPSRFSGSGSGTDFTLTISSLQPEDAATYYCAGGYGGGRYAFGQGTKVEIKRTVAAPSVFIFPPSDEQLKSGTASVVCLLNNFYPREAKVQWKVDNALQSGNSQESVTEQDSKDSTYSLSSTLTLSKADYEKHKVYACEVTHQGLSSPVTKSFNRGEC
